Laboratory results: publication PMC3637229, “Differential Translation of Dazap1 Transcripts during Spermatogenesis”

T1: His-DAZL (Mus musculus, UniProt Q64368 1-298)
T1 sequence: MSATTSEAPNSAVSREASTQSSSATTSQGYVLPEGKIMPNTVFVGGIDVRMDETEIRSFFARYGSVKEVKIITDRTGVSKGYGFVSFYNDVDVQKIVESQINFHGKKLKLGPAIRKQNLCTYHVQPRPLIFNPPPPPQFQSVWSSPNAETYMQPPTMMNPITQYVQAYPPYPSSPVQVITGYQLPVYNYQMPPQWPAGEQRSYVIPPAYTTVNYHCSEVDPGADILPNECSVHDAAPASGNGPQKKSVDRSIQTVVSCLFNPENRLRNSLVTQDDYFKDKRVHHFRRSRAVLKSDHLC

B1: Dazap1 3'UTR C region (ssRNA)
RNA: AGGGUUUAAAAAACGCCUUCAGCUUUAAUUCAGAAUUUCAGGUUUCUUUUUCUUCUUCCUUUUUUUUCCUUUUUUUGAGAUUAUUUUCUUGAGCCUUUUGUUUUAUGGUAUAUUGUAAACUUUUAUGUUAAAGAAAAAAUAUACAUUUACAAAUUGUGAGAUUUUUAAGAGAAAUUUUCUACAAUGUAUACUGGCUUAUUUUUUAAUUUAAAGCAGGGUUCGGGUG

How the values were obtained:
His-DAZL [1] = target: T1, His-DAZL; test: EMSA; heparin, yeast tRNA; EMSA: 1 ug DAZL in 10 ul, 20 mM Tris pH 7.4, 2.5 mM MgCl2, 60 mM KCl, 1 mM DTT, 5% glycerol, RT, then 5 mg/ml heparin + 0.5 mg/ml yeast tRNA; pull-down: 20 mM Tris-HCl pH 7.4, 2.5 mM MgCl2, 120 mM KCl, 1 mM DTT, 5% glycerol, RT, 5 mg/ml heparin; conditions: protein: recombinant; tags: His (pET-28a); label: 32P (gel shift)
His-DAZL [2] = target: T1, His-DAZL; test: competition; cold C_40 1, 5, 10 ng vs labeled CU_40; EMSA: 1 ug DAZL in 10 ul, 20 mM Tris pH 7.4, 2.5 mM MgCl2, 60 mM KCl, 1 mM DTT, 5% glycerol, RT, then 5 mg/ml heparin + 0.5 mg/ml yeast tRNA; pull-down: 20 mM Tris-HCl pH 7.4, 2.5 mM MgCl2, 120 mM KCl, 1 mM DTT, 5% glycerol, RT, 5 mg/ml heparin; conditions: protein: recombinant; tags: His (pET-28a)

Row | Binder | binding result (His-DAZL [1]) | binding result (His-DAZL [2])
1 | AGGUUUCUUUUUCUUCUUCCUUUUUUUUCCUUUUUUUGAG (ssRNA) [CU_40] | binds | –
2 | AGGGUUUAAAAAACGCCUUCAGCUUUAAUUCAGAAUUUCAGGU (ssRNA) [C_40] | – | no binding
3 | B1 | binds | –
